Several values for one entry are separate records, joined by “and”; a condition that tells them apart may be missing. Equal entries are not always repeated.
Key:
CD47 on CCRF-CEM cells [1] = molecular target: T1, CD47 on CCRF-CEM cells (human, UniProt Q08722 19-323); assay: cell-based or functional assay
CD47 on CCRF-CEM cells [2] = molecular target: T1, CD47 on CCRF-CEM cells; assay: flow cytometry on antibody-opsonized CCRF-CEM cells, anti-human Alexa 647 secondary, median fluorescence, sigmoidal fit
Protocol: (§1) Phagocytosis was assayed by serum starving the macrophages in incomplete AIM V media for two hours. During this incubation period, target cells (CCRF-CEM) from two donors (donor 1 and donor 2) were labeled with CSFE (Invitrogen, #C34554) at […] for 15 minutes at room temperature. Cells were rinsed twice with PBS (Hyclone, #SH30028.02) and resuspended at 8×10⁵/mL in AIM V media. Antibody dilutions were prepared at 0.01 ug/ml to 10 ug/ml in half log dilutions and then incubated with the target cell line for 10 minutes at room temperature (a small portion is retained for flow cytometric analysis/cell binding), after which 100 μL of target cell/antibody suspension was added to the macrophage plates. Samples were treated in triplicate and with appropriate isotype controls.
(§2) Samples were incubated for 30 minutes at room temperature, rinsed 2× and then resuspended in FACS buffer and analyzed on the Attune. The EC50 values refer to the concentration that gives half the maximum binding measured as median fluorescent intensity, and was determined by non-linear fit of a sigmoidal dose response within the GraphPad Prism software.

CD47 on CCRF-CEM cells [3] = molecular target: T1, CD47 on CCRF-CEM cells; assay: flow cytometry on antibody-opsonized CCRF-CEM cells, anti-human Alexa 647 secondary, median fluorescence, sigmoidal fit; Donor 1
Protocol: as §1, §2

CD47 on CCRF-CEM cells [4] = molecular target: T1, CD47 on CCRF-CEM cells; assay: flow cytometry on antibody-opsonized CCRF-CEM cells, anti-human Alexa 647 secondary, median fluorescence, sigmoidal fit; Donor 2
Protocol: as §1, §2

T1 sequence (Q08722 19-323): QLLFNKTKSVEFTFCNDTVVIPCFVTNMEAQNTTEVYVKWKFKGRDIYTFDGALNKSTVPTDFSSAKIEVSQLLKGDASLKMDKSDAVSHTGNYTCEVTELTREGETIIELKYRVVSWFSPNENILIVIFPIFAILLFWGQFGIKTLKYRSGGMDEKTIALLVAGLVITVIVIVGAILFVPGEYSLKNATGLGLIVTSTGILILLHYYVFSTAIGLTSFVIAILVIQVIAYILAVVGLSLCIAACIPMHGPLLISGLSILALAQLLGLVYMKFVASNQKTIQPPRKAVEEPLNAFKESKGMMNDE

| Phagocytosis EC50 (ug/mL), Donor 1 (CD47 on CCRF-CEM cells [1]) | Phagocytosis EC50 (ug/mL), Donor 2 (CD47 on CCRF-CEM cells [1]) | EC50 (CD47 on CCRF-CEM cells [2]) | EC50 (CD47 on CCRF-CEM cells [3]) | EC50 (CD47 on CCRF-CEM cells [4]) | Binder |
| --- | --- | --- | --- | --- | --- |
| 0.38 µg/mL | 0.13 µg/mL | 0.014 µg/mL | – | – | AbParental, parental anti-CD47 antibody (antibody, human IgG4 S228P, kappa, V domains shown, Parental anti-CD47 antibody, described in WO 2013/119714 A1; also called Parental LC-HC; parental antibody) VH: QMQLVQSGAEVKKTGSSVKVSCKASGFNIKDYYLHWVRQAPGQALEWMGWIDPDQGDTEYAQKFQDRVTITRDRSMSTAYMELSSLRSEDTAMYYCNAAYGSSSYPMDYWGQGTTVTVSS VL: NIQMTQSPSAMSASVGDRVTITCKASQDIHRYLSWFQQKPGKVPKHLIYRANRLVSGVPSRFSGSGSGTEFTLTISSLQPEDFATYYCLQYDEFPYTFGGGTKVEIKR |
| 0.15 µg/mL | 0.62 µg/mL | 0.015 µg/mL | – | – | Ab1119/Ab170 (LC Ab1119, HC Ab170) anti-CD47 antibody (antibody, V domains shown, Variant of AbParental) VH: QMQLVQSGAEVKKPGSSVKVSCKASGFNIKDYYLHWVRQAPGKGLEWMGWIDPDQGDTEYAQKFQGRVTITRDRSTSTAYMELRSLRSEDTAVYYCNAAYGSSSYPMDYWGQGTTVTVSS VL: NIQMTQSPSSLSASVGDRVTITCRASQDIHRYLSWFQQKPGKVPKHLIYRANRLVSGVPSRFSGSGSGTEFTLTISSLQPEDFATYYCLQYDEFPYTFGGGTKVEIK |
| 0.36 µg/mL and 0.31 µg/mL and 0.14 µg/mL | – | 0.014 µg/mL and 0.035 µg/mL | 0.06 µg/mL | 0.16 µg/mL | Ab1119/Ab356 (LC Ab1119, HC Ab356) anti-CD47 antibody (antibody, V domains shown, Variant of AbParental) VH: QMQLVQSGAEVKKPGSSVKVSCKASGFNIKDYYLHWVRQAPGKGLEWMGWIDPDQGDTEYAQKFQGRVTITRDRSTSTAYMELRSLRAEDTAVYYCNAAYGSSSYPMDYWGQGTTVTVSS VL: NIQMTQSPSSLSASVGDRVTITCRASQDIHRYLSWFQQKPGKVPKHLIYRANRLVSGVPSRFSGSGSGTEFTLTISSLQPEDFATYYCLQYDEFPYTFGGGTKVEIK |
| 0.59 µg/mL | 0.94 µg/mL | 0.066 µg/mL | – | – | Ab495/Ab480 (LC Ab495, HC Ab480) anti-CD47 antibody (antibody, V domains shown, Framework variant of AbParental) VH: QMQLVQSGAEVKKPGSSVKVSCKASGFNIKDYYLHWVRQAPGKGLEWMGWIDPDQGDTEYAQKFQGRVTITRDRSTSTAYMELRSLRAEDTAVYYCNAAYGSSSYPMDYWGQGTLVTVSS VL: NIQMTQSPSSLSASVGDRVTITCKASQDIHRYLSWYQQKPGKAPKHLIYRANRLVSGVPSRFSGSGSGTEFTLTISSLQPEDFATYYCLQYDEFPYTFGGGTKVEIK |
| – | 0.52 µg/mL and 0.21 µg/mL | 0.011 µg/mL and 0.014 µg/mL | – | – | Ab1119/Ab387 (LC Ab1119, HC Ab387) anti-CD47 antibody (antibody, V domains shown, Variant of AbParental) VH: QMQLVQSGAEVKKPGSSVKVSCKASGFNIKDYYLHWVRQAPGKGLEWMGWIDPDQGDTEYAQKFQGRVTITRDRSTSTAYMELRSLRSEDTAVYYCNAAYGSSSYPMDYWGQGTLVTVSS VL: NIQMTQSPSSLSASVGDRVTITCRASQDIHRYLSWFQQKPGKVPKHLIYRANRLVSGVPSRFSGSGSGTEFTLTISSLQPEDFATYYCLQYDEFPYTFGGGTKVEIK |

More lines, now with the values behind:

| Binder | Phagocytosis EC50 (ug/mL), Donor 1 (CD47 on CCRF-CEM cells [1]) | Phagocytosis EC50 (ug/mL), Donor 2 (CD47 on CCRF-CEM cells [1]) | EC50 (CD47 on CCRF-CEM cells [2]) | EC50 (CD47 on CCRF-CEM cells [3]) | EC50 (CD47 on CCRF-CEM cells [4]) |
| --- | --- | --- | --- | --- | --- |
| Ab1119/Ab480 (LC Ab1119, HC Ab480) anti-CD47 antibody (antibody, V domains shown, Variant of AbParental) VH: QMQLVQSGAEVKKPGSSVKVSCKASGFNIKDYYLHWVRQAPGKGLEWMGWIDPDQGDTEYAQKFQGRVTITRDRSTSTAYMELRSLRAEDTAVYYCNAAYGSSSYPMDYWGQGTLVTVSS VL: NIQMTQSPSSLSASVGDRVTITCRASQDIHRYLSWFQQKPGKVPKHLIYRANRLVSGVPSRFSGSGSGTEFTLTISSLQPEDFATYYCLQYDEFPYTFGGGTKVEIK | 0.44 µg/mL and 0.19 µg/mL | 0.71 µg/mL and 0.24 µg/mL | 0.012 µg/mL | 0.04 µg/mL | 0.07 µg/mL |
| Ab495/Ab356 (LC Ab495, HC Ab356) anti-CD47 antibody (antibody, V domains shown, Framework variant of AbParental) VH: QMQLVQSGAEVKKPGSSVKVSCKASGFNIKDYYLHWVRQAPGKGLEWMGWIDPDQGDTEYAQKFQGRVTITRDRSTSTAYMELRSLRAEDTAVYYCNAAYGSSSYPMDYWGQGTTVTVSS VL: NIQMTQSPSSLSASVGDRVTITCKASQDIHRYLSWYQQKPGKAPKHLIYRANRLVSGVPSRFSGSGSGTEFTLTISSLQPEDFATYYCLQYDEFPYTFGGGTKVEIK | 0.68 µg/mL | 0.92 µg/mL | 0.035 µg/mL | – | – |
| Ab482/Ab387 (LC Ab482, HC Ab387) anti-CD47 antibody (antibody, V domains shown, Framework variant of AbParental) VH: QMQLVQSGAEVKKPGSSVKVSCKASGFNIKDYYLHWVRQAPGKGLEWMGWIDPDQGDTEYAQKFQGRVTITRDRSTSTAYMELRSLRSEDTAVYYCNAAYGSSSYPMDYWGQGTLVTVSS VL: NIQMTQSPSSMSASVGDRVTITCKASQDIHRYLSWFQQKPGKVPKHLIYRANRLVSGVPSRFSGSGSGTEFTLTISSLQPEDFATYYCLQYDEFPYTFGGGTKVEIK | 0.15 µg/mL | 0.17 µg/mL | 0.014 µg/mL | – | – |
| Ab480/Ab1122 (HC Ab480, LC Ab1122) anti-CD47 antibody (antibody, V domains shown, FR and CDR L2 variant of AbParental; The label order is HC/LC although the head says 'LC/HC'; r445 is used) VH: QMQLVQSGAEVKKPGSSVKVSCKASGFNIKDYYLHWVRQAPGKGLEWMGWIDPDQGDTEYAQKFQGRVTITRDRSTSTAYMELRSLRAEDTAVYYCNAAYGSSSYPMDYWGQGTLVTVSS VL: NIQMTQSPSSLSASVGDRVTITCRASQDIHRYLSWFQQKPGKVPKHLIYRYERFVDGVPSRFSGSGSGTEFTLTISSLQPEDFATYYCLQYDEFPYTFGGGTKVEIK | 1.1 µg/mL | 1.84 µg/mL | – | 0.16 µg/mL | 0.17 µg/mL |
| Ab480/Ab1127 (HC Ab480, LC Ab1127) anti-CD47 antibody (antibody, V domains shown, FR and CDR L2 variant of AbParental; The label order is HC/LC although the head says 'LC/HC'; r460 is used) VH: QMQLVQSGAEVKKPGSSVKVSCKASGFNIKDYYLHWVRQAPGKGLEWMGWIDPDQGDTEYAQKFQGRVTITRDRSTSTAYMELRSLRAEDTAVYYCNAAYGSSSYPMDYWGQGTLVTVSS VL: NIQMTQSPSSLSASVGDRVTITCRASQDIHRYLSWFQQKPGKVPKHLIYRESRFVDGVPSRFSGSGSGTEFTLTISSLQPEDFATYYCLQYDEFPYTFGGGTKVEIK | 1.88 µg/mL | 1.95 µg/mL | – | 0.08 µg/mL | 0.2 µg/mL |
| Ab480/Ab1121 (HC Ab480, LC Ab1121) anti-CD47 antibody (antibody, V domains shown, FR and CDR L2 variant of AbParental; The label order is HC/LC although the head says 'LC/HC'; r442 is used) VH: QMQLVQSGAEVKKPGSSVKVSCKASGFNIKDYYLHWVRQAPGKGLEWMGWIDPDQGDTEYAQKFQGRVTITRDRSTSTAYMELRSLRAEDTAVYYCNAAYGSSSYPMDYWGQGTLVTVSS VL: NIQMTQSPSSLSASVGDRVTITCRASQDIHRYLSWFQQKPGKVPKHLIYRYIRFVDGVPSRFSGSGSGTEFTLTISSLQPEDFATYYCLQYDEFPYTFGGGTKVEIK | 0.43 µg/mL | 1.42 µg/mL | – | 0.17 µg/mL | 0.17 µg/mL |
